Reference: the nanobody polyreactivity screen of Harvey et al. (2022)

Experiment: yeast display, Sf9 membrane polyspecificity reagent, FACS + sequencing; frameworks hold sequencing errors
Summary of the method: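 Nanobodies came from a synthetic yeast display library in Saccharomyces cerevisiae BJ5465, induced with galactose for 36–48 hours and stained for 1 hour at 4 °C with 10% biotinylated, detergent-solubilized Sf9 membrane reagent. Cells were enriched on streptavidin microbeads and then FACS-sorted, with low and high (top ~1%) gates set on anti-HA fluorescence for expression and streptavidin fluorescence for reagent binding. Each polyreactivity label reflects the gate a clone came from. Genes were amplified by colony PCR, sequenced by MiSeq 2 × 250 and filtered by CDR length.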

Row | Sequence | polyreactivity (PSR sort gate)
1 | QVQLVESGGGLVQAGGSLRLSCAASGITFRRYTMGWYRQPPGKERELVATISLSDGNTYYADSVKGRFTISRDNAKNTVYLQMNSLKPEDTAVYYCNARHTWHQTYDYWGQGTQVTVSS | low polyreactivity
2 | QVQLVESGGGLVQAGGSLRLSCAASGITFRSNAMGWYRQAPGKERELVATISYRGASTYYADSVKGRFTISRDNAKNTVYLQMNSLKPEYTSVYYCNVRNRYWRSRVDYWGQGTQVTVSS | high polyreactivity
3 | QVQLVESGGGLVQAGGSLRLSCAASGITFRSYAMGWYRQAPGKERELVATISGRGGRTYYADSVKGRFTISRDNAKNTVYLQMNSLKPEDTAVYYCAARLHSYGVGVDYWGQGTQVSVSS | high polyreactivity
4 | QVQLVESGGGLVQAGGSLRLSCAASGITFRSYAMGWYRQAPGKERELVATISWSGGITYYADSVKGRFTISRDNAKITVYLQMNSLKPEDTAVYYCAKASQSWGRDDYYYWGQGTQLTVSS | low polyreactivity
5 | QVQLVESGGGLVQAGGSLRLSCAASGITFRSYEMGWYRAAPAKERELVAAISSGGSRTYYADSVKGRYTISRDNAKKTVYLQMNSLKPEDTAVYYCAATDRSDVYKGAYYYWGQGTQVTVSS | high polyreactivity
6 | QVQLVESGGGLVQAGGSLRLSCAASGITFRTYAMGWYRQAPGKERELVAAISGSSTSTYYADSVKGRFTISRDNAKNTVYLLMNSLKPEDTAVYYCAAGYRVSVYRYYYWGQGTQVTVSS | high polyreactivity
7 | QVQLVESGGGLVQAGGSLRLSCAASGITFRTYAMGWYRQAPGKERELVAAISGSSTSTYYADSVKGRFTISRDNAKNTVYLQLNSLKPEDSAVYYCAAGYRVSVYRYYYWGQGTQVTVSS | high polyreactivity
8 | QVQLVESGGGLVQAGGSLRLSCAASGITFRYYAMGWYRQAPGKERELVAAISYSGGSTYYADSVKGRFTISRDNAKNTVYLQMNRLKPEDTAVYYCNRVWTRLVTYPEYDYWGQGTQVTVSS | high polyreactivity
9 | QVQLVESGGGLVQAGGSLRLSCAASGITFRYYAMGWYRQAPGKERELVASITSGGVNTYYADSVKGRFTISRDNAKNTVYLQMNSLKPEDTAVYYCATRFSYSALGGYDYWGQGTQVTVSS | low polyreactivity
10 | QVQLVESGGGLVQAGGSLRLSCAASGITFRYYAMGWYRQAPGKERELVATINWSGGTTHYADSVKGRFTISRENAKNTVYLQMNSLKPEDTAVYYCAADPWQYKLGWPPFTYDYWGQGTQVTVSS | high polyreactivity
11 | QVQLVESGGGLVQAGGSLRLSCAASGITFRYYAMGWYRQAPGKERELVAVISTSGGSTYYADSVKGRFTISRDNAKNTVFLQMNSLKPEDTAVYYCAVVWPYYERYYYWGQGTQVTVSS | high polyreactivity
12 | QVQLVESGGGLVQAGGSLRLSCAASGITFRYYTMGWYRQAPGKERELVAAITTGGSTNYADSVKGRFTISRDNAKNTVYLQMNSLKPEDTAVYYCAATYKYITRGYLYDYWGQGTQVTVSS | high polyreactivity
13 | QVQLVESGGGLVQAGGSLRLSCAASGITFSEYAMGLYRQAPGKERELVAAITSGGNTYYADSVKGRFTISRDNAKNTVYLQMNSLKPEDTAVYYCAATFSSAFAYYYWGQGTQVTVSS | low polyreactivity
14 | QVQLVESGGGLVQAGGSLRLSCAASGITFSFYALGWYRHAPGKERELVAAISRGGASTYYADSVKGRFTISRDNAKNTVYLQMNSLKPEDSAVYYCAALSVDERYDYWGQGTQVTVSS | low polyreactivity
15 | QVQLVESGGGLVQAGGSLRLSCAASGITFSFYAMGWYRQAPGKERELVAAISWNGDSTYYADSVKGRFTISRDNAKNTVYLQMNSLKPEDTAVYYCNAEFVAWYYYEDQDGDYWGQGTQVTVSS | high polyreactivity
16 | QVQLVESGGGLVQAGGSLRLSCAASGITFSGNAMGWYRQAPGKARELVATISQSGGRTYYADSVNGRFTISRDNAKHTVYLQMNSLKPEDTAVYYCARRRMRYTDRGYYYWGQGTQVTVSS | high polyreactivity
17 | QVQLVESGGGLVQAGGSLRLSCAASGITFSGYDMGWYRQAPGKERELVADITISTGSTYYADSVKGRFTISRDNANNTVYLQMNSLKPEDTAVYYCAADWQQDRTVVLPSWGHAYDSWGQGTQVTVSS | low polyreactivity
18 | QVQLVESGGGLVQAGGSLRLSCAASGITFSKYAMGWFRHAPGKERELFASITWSGTSTYYADSVKGRFTISRDNAKNTVYLQMKSLKPEDTAVYYCAADGWGTFWRAQNGYGYEHDYWGKGTQVTVSS | low polyreactivity
19 | QVQLVESGGGLVQAGGSLRLSCAASGITFSLYAMGWYRQAPGKERELVAAIDWSSGSTYYADSVKGRFTISRDNAKNTVYLQMNSLKPEDTAVYYCAAEYVHHASGDFSTLYYYWGQGTQVTVSS | low polyreactivity
20 | QVQLVESGGGLVQAGGSLRLSCAASGITFSPYTMGCYRQAPGKERELVAAITDGAITYYADSVKGRFTISRDNAKNTVYLQMNSLKPEDTAVYYCAAAAWGTDPYSTDYATYDYWGQGTQVTVSS | low polyreactivity
21 | QVQLVESGGGLVQAGGSLRLSCAASGITFSRKVMGWFRQAPGKERELVAAISRSGGRTYYADSVKGRFTISRDTAKNTVYLQMNSLKPEDTAVYYCNRDIGGTSVLDDYWGQGTQVTVSS | low polyreactivity
22 | QVQLVESGGGLVQAGGSLRLSCAASGITFSRNAMGWYRQAPGKERELVATITSGGSTNYADSVKGRFTISRDNAKNTVYLQMNSLKPEDTAGYYCNAVWNTFISGRSYDYWGQGTQVTVSS | low polyreactivity

Row | Sequence | polyreactivity (PSR sort gate)
23 | QVQLVESGGGLVQAGGSLRLSCAASGITFSRNAMGWYRQAPGKERELVATITSGGSTNYADSVKGRFTISRDNAKNTVYLQMNSLKPEDTAVYYCNAVWNTLISGRSYDYWGQGTQVTVSS | low polyreactivity
24 | QVQLVESGGGLVQAGGSLRLSCAASGITFSRNAMGWYRQAPGKERELVAVISTRGGRTYYADSVKGRFTISRDNAKNTVYLQMISLKPEDTAVYYCAASPDPYWRRMDYWGQGTQVTVSS | high polyreactivity
25 | QVQLVESGGGLVQAGGSLRLSCAASGITFSRNVMGWYRQAPGKERELVAAISRSGGRTYYADSVKGRFTISRDNAKNTVYLQMNSLKPEDTAVYDCNRDIGGTSVLDDYWGQGTQVTVSS | low polyreactivity
26 | QVQLVESGGGLVQAGGSLRLSCAASGITFSRNVMGWYRQAPGKERELVAAISRSGGTTTYADSVKGRFTISRDNAKNTVYLQMNSLKPEDTAVYYCNVYDYPTYDYWGQGTQVSVSS | low polyreactivity
27 | QVQLVESGGGLVQAGGSLRLSCAASGITFSRYAMGWYRQAPGKERELVAAITVSGGTTYYADSVKGRFTISRDNAKNTVYLQMNSLKPEDTAVYYCAAVRRKTAGGLEDYWGQGTQVTVSS | high polyreactivity
28 | QVQLVESGGGLVQAGGSLRLSCAASGITFSRYAMGWYRQAPVKERELVAAITWDGGRTYYADSVKGRFTISRANAKNTVYLQMNSRKPEDTADYYCSAGSAWWYYWGQGTQVTVSS | high polyreactivity
29 | QVQLVESGGGLVQAGGSLRLSCAASGITFSTYAMGWYIQAPGKERELVAAITKSGGSTYYADSVKGRFTISRDNAKNTVYLQMNRLKPEDTAVYYCAARFPHRHYLLYTYDYWGQGTQVTVSS | low polyreactivity
30 | QVQLVESGGGLVQAGGSLRLSCAASGITFSVYAMGWYRQAPGKERELVAAINYDSGSTYYADSVKGRFTISRDNAKNTVYLQMNSLKPEDTAVYYCATDGVNPFYAFDYWGQGTQVTVSS | low polyreactivity
31 | QVQLVESGGGLVQAGGSLRLSCAASGITFSVYTMGWYIQAPGKERELVAAIDSDGITNYADSVKGRFTISRDNEKNNVYLQMNSLKPEDTAVSYCAKQTGRADGVSGFDYWGQGTQVTVSS | low polyreactivity
32 | QVQLVESGGGLVQAGGSLRLSCAASGITFSYNAMGWYRQAAGKERELVAAITWSGDSTYYADSVKGRFTISRDNAKNTVYLQMNSLKPEDTAVYYCNAVPSQHDEFDYWGQGTQVTVSS | low polyreactivity
33 | QVQLVESGGGLVQAGGSLRLSCAASGITFSYNAMGWYRQAPGKERQLVAAITWSGDSTYYADSVKGRFTISRDNAKNTVYLQMNSLKREDTAVYYCNARYLRLRYPYTDEYNYWGQGTQVTVSS | low polyreactivity
34 | QVQLVESGGGLVQAGGSLRLSCAASGITFSYNVMGWYRQAPGKERELVAAISDGGSTYYADSVKGRFTISRDNAKNTVYLLMNSLKPEDTAVYDCAKGYPYTYSQQVIYDYYYWGQGTQVTVSS | low polyreactivity
35 | QVQLVESGGGLVQAGGSLRLSCAASGITFSYNVMGWYRQAPGKERELVAAISDGGSTYYADSVKGRFTISRDNAKNTVYLQMNSLKPEDTAVYYCAADSPVDYLYALYLYVRDDYWGQGTQVTVSS | low polyreactivity
36 | QVQLVESGGGLVQAGGSLRLSCAASGITFTAYAMGWYRHAPGKERELVATINSTGITNYADSVKGRFTISRDNAKNTVYLQMNSLKPEDTAVYYCAADLLDNSSYDGMDYWGQGTQVTVSS | low polyreactivity
37 | QVQLVESGGGLVQAGGSLRLSCAASGITFTAYAMGWYRQAPGKERELVATINSTGITNYADSVKGRFTISRDNAKNTFYLQMNCLKAEDTAVSYCGADVLDISSYDGMDYWGKGTQVTVSS | low polyreactivity
38 | QVQLVESGGGLVQAGGSLRLSCAASGITFTAYDMGWYRQAPWKEREFVAAISTIGGSTNYADSVKGRFTISRDNAKNTVYLQMNSLKPEDTAVYYCFAWVYQFGYWGQGTQVTVSS | low polyreactivity
39 | QVQLVESGGGLVQAGGSLRLSCAASGITFTEYAMGWYRQAPGKERELVAAITGSGTSTYYADSVKGRFTISRDNAKNTVYLQMNSLKPEDTAVYYCAARTRGTAYNYWGQGTQVTVSS | high polyreactivity
40 | QVQLVESGGGLVQAGGSLRLSCAASGITFTEYAMGWYRQAPGKERELVATISYGGGITYYADSVKGRFTISRDNAKNTVYLQMNSLKPEDTAVYYCAADGLSQVQRGMDYWGQGTQVNVSS | low polyreactivity
41 | QVQLVESGGGLVQAGGSLRLSCAASGITFTGYDMGWYRQAPGIERELVADISNGSSTDYADSVKGRFTISRDNAKKTVYLQMNSLNPEDTAVYYCAVDIDNWSEYDYWGQGTQVTVSS | low polyreactivity
42 | QVQLVESGGGLVQAGGSLRLSCAASGITFTGYDMGWYRQAPGIERELVADISNGSSTDYADSVKGRFTISRDNAKNTVYFQMISLKPEDTAVYYCAVDIDNWSEYDYWGHGTQVTVSS | low polyreactivity
43 | QVQLVESGGGLVQAGGSLRLSCAASGITFTGYSMGWYRQAPGKERELVAVISEKGGSTYADSVKGRFTISRDNAKNTVYLQMNSLKPEDTAVYYCAARLWWPYSTAWAKMDYWGQGTQVTVSS | low polyreactivity
